The record followed here is PMC9021610.

Series [1] concerns the target nsp12 (RdRp catalytic subunit, Sf9) (SARS-CoV-2, UniProt P0DTD1 4393-5324). As to the kind of experiment: EMSA; nsp12 alone. As to conditions: protein: recombinant; tags: 6xHis (Results: C-terminal; Methods: His tag after 5' ATG); label: 5'-biotin on strand 1 (S1); 5' overhang 10 nt (U10) on strand 2. On the technique in general: Mobility shift assays separate free from complexed probe on a gel.

The target of series [2] is nsp12 (RdRp catalytic subunit, Sf9);nsp7;nsp8 (SARS-CoV-2;SARS-CoV-2;SARS-CoV-2, UniProt P0DTD1;P0DTD1;P0DTD1 4393-5324;3860-3942;3943-4140, ||). As to the kind of experiment: EMSA. As to conditions: protein: recombinant;recombinant;recombinant; tags: 6xHis (Results: C-terminal; Methods: His tag after 5' ATG);6xHis (Results: C-terminal; legend: His6-nsp7);6xHis (Results: C-terminal; legend: His6-nsp8); copies: 1;1;2; label: 5'-biotin on strand 1 (S1); 5' overhang 10 nt (U10) on strand 2.

B1: S1*/S2 RNA primer/template (dsRNA)
RNA 1: GCUAUGUGAGAUUAAGAAUU
RNA 2: UUUUUUUUUUAAUUCUUAAUCUCACAUAGC
With B1, the binding result in series [1] and in series [2] was “binds” in each case.
